Reference: article PMC7392006, “Demethylase-independent function of JMJD2D as a novel antagonist of p53 to promote Liver Cancer initiation and progression”

B1: PUMA promoter p53 element (dsDNA)
DNA 1: GCGCGCCTGCAAGTCCTGACTTGTCCGCGGCG
DNA 2: CGCCGCGGACAAGTCAGGACTTGCAGGCGCGC
B2: p21 promoter p53 element (dsDNA)
DNA 1: CTGGCCGTCAGGAACATGTCCCAACATGTTGAGCTCT
DNA 2: AGAGCTCAACATGTTGGGACATGTTCCTGACGGCCAG

Molecular target: p53 (recombinant, Active Motif 81091) (Homo sapiens, UniProt P04637 1-393)
Experiment: EMSA; no JMJD2D; 5 mM Hepes pH 7.6, 100 mM KCl, 5 mM MgCl2, 1.25 mM DTT, 0.05% NP-40, 2.25% glycerol, 1 ug poly(dI.dC); 6% polyacrylamide gel; temperature not stated
Conditions: protein: commercial; chain copies: 4; label: biotin end label; blunt

p53 (recombinant, Active Motif 81091), sequence (P04637 whole entry): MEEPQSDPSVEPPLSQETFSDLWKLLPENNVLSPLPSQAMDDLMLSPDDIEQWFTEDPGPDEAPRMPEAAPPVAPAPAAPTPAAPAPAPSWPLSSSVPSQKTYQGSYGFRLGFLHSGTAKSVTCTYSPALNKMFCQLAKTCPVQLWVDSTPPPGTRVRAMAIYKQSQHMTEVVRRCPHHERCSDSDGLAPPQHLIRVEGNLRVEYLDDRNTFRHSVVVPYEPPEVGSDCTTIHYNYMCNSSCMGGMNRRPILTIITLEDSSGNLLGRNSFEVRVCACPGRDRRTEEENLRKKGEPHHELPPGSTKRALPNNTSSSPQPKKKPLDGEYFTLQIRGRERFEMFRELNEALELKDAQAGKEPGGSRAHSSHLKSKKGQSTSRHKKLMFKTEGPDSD

Row | Binder | binding result
1 | B1 | binds
2 | B2 | binds
